These results are taken from US20220340657A1 (L AND L BIO CO LTD NINGBO CHINA, published 2022).

The target in experiment [1] is T1, human PD-1 (hFc/his tag) (human, UniProt Q15116 21-167).
T1 construct: range 21-167; not shown: hFc or his tag
The experiment in a line: ELISA on human PD-1.

In experiment [2] the target is T2, human LAG-3-his (human, UniProt P18627 23-422).
T2 construct: range 23-422; also called hLAG-3-his; hLAG-3
T2 sequence: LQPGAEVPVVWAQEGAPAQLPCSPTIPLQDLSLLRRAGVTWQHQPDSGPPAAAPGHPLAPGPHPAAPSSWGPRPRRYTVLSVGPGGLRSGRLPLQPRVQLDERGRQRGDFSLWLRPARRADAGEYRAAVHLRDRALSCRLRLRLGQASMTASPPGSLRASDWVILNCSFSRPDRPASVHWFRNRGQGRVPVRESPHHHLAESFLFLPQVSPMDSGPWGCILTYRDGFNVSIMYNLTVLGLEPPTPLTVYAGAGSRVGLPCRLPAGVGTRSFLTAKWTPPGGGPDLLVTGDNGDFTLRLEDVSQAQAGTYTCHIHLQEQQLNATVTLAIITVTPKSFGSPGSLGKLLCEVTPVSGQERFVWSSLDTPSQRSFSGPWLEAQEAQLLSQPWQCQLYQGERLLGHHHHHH
The experiment is described as follows: ELISA on human LAG-3. Background: In an ELISA, binding on a coated surface is turned into a signal by an enzyme label.

For experiment [3], the target named is T1, human PD-1 (hFc/his tag). The experiment is described as follows: blocking of PD-1 binding to PD-L1.
For experiment [4], the target named is T3, bio-LAG3-mFc (human, UniProt P18627 23-450, biotin-labelled).
T3 construct: also called hLAG-3
T3 sequence (looked up): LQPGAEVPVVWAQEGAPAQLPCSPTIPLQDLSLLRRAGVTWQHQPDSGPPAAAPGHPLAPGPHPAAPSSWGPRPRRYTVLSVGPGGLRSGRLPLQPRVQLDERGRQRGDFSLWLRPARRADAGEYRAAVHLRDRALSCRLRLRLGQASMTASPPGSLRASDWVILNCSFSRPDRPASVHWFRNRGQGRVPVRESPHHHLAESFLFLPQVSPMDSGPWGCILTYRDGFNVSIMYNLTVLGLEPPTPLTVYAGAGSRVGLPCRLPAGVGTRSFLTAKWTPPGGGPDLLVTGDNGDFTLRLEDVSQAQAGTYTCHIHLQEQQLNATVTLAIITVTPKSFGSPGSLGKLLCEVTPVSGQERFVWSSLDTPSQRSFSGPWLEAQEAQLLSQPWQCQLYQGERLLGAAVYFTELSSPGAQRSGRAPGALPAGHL
The experiment is described as follows: blocking of LAG3 binding to Daudi cells. The method, then: The Daudi cell line (ATCC, CCL-213) was expanded and seeded into 96-well microplate at a density of 2×10⁵ cells/well, and then centrifuged at 1600 rpm for 10 min; thereafter the cells were fixed with 100 μl/well of a fixative solution for immunostaining (Shanghai Beyotime Biotechnology Co., Ltd., Cat. No.: P0098) for half an hour at room temperature. After washing with PBS (BasalMedia Biology, Cat. No.: B320) once, 5% milk was added with 230 μl per well, and the microplate was incubated for 2 hours at 37° C. for blocking, then was washed three times with PBST. […] The microplate was then incubated for 1 hour at 37° C. and washed 5 times with PBST. 50 μl/well of 1:1000 diluted streptavidin-HRP secondary antibody (GenScript, Cat. No.: M00091) was added to the microplate and incubated for 1 hour at 37° C. After washing the microplate 5 times with PBST, 50 μl/well TMB (Surmodic, Cat. No.: TTMB-1000-01) was added to the microplate for color development, and 50 μl/well 1M H₂SO₄ was added to stop the reaction. The microplate was then read by a microplate reader (MuitiskanGo Thermo, model 511919200), and the data were analyzed using GraphPad prism 5.

Experiment [5] deals with T2, human LAG-3-his. The experiment in a line: ELISA on human LAG3, sample kept at 37 C for 5 days.
Experiment [6] concerns the target T1, human PD-1 (hFc/his tag). The experiment in a line: ELISA on human PD-1, sample kept at 37 C for 5 days.
Experiment [7] concerns the target T2, human LAG-3-his. The experiment in a line: ELISA on human LAG3, sample kept at 37 C for 10 days.
Experiment [8] deals with T1, human PD-1 (hFc/his tag). The experiment is described as follows: ELISA on human PD-1, sample kept at 37 C for 10 days.
The target in experiment [9] is T2, human LAG-3-his. The experiment is described as follows: ELISA on human LAG3, sample stored at -80 C for 60 days.
In experiment [10] the target is T1, human PD-1 (hFc/his tag). The experiment in a line: ELISA on human PD-1, sample stored at -80 C for 60 days.
Experiment [11] concerns the target T1, human PD-1 (hFc/his tag). The experiment is described as follows: ELISA on coated human PD-1, OD450 (Example 13) [panel b].
The target of experiment [12] is T2, human LAG-3-his. The experiment is described as follows: ELISA on coated human LAG-3, OD450 (Example 3, Example 13) [panel a].
In a further experiment the target is T4, Bio-LAG-his (UniProt P18627 23-450, biotin-labeled).
T4 construct: Detection reagent of the double-sandwich ELISA; also called biotin-labeled LAG-3-his (ACROBiosystems); not shown: his tag of the bought product
T4 sequence (looked up): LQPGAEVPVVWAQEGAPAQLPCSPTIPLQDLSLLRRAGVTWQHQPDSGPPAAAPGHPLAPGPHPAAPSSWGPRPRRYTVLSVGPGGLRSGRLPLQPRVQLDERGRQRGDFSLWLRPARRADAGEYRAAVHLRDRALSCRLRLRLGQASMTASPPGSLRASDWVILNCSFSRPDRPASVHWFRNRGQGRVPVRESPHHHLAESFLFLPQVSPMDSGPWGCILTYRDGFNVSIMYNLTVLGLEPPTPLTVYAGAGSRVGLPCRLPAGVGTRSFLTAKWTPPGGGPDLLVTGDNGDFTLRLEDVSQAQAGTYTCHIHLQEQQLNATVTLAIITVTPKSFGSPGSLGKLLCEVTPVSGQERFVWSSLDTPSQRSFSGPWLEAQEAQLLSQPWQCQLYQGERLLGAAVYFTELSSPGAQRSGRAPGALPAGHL
The experiment is described as follows: double-sandwich ELISA: plate coated with PD-1, bispecific titrated, detected with Bio-LAG-his. As to the method: Finally, 50 μl/well of 1M H₂SO₄ was added to stop the reaction.

Experiment [13] addresses T2, human LAG-3-his. The experiment in a line: ELISA on human LAG3, sample stored at -80 C for 60 days; sample stored at -80 C for 60 days (reference value in brackets).
Experiment [14] has as its target T2, human LAG-3-his. The experiment is described as follows: ELISA on hLAG-3. The method, then:
(§1) After discarding the liquid, a blocking solution of 5% skimmed milk (Bright skimmed milk powder) diluted with PBS was added at 230 μl per well, followed by incubating at 37° C. for 3 hours or 4° C. overnight (16-18 hours) for blocking. Subsequently, the blocking solution was discarded, and the micropiate was washed 5 times with PBST buffer (pH 7.4 PBS containing 0.05% tweeen-20). Then 50 μl/well of the supernatant (containing the antibody to be tested) or a starting concentration of 10 μg/ml of the antibody to be tested, which was diluted 5 times in gradient, was added, followed by incubating the mixture for 1 hour at 37° C. […] After washing the microplate 5 times with PBST, 50 μl/well TIMB chromogenic substrate (KPL, Cat. No.: 52-00-03) was added, and then incubated for […] at room temperature. Finally, 50 μl/well of 1 M H₂SO₄ was added to stop the reaction. The absorbance value at 450 nm was read by […] GO microplate reader (ThermoFisher, Cat. No.: 51119200). The clones with high affinity were selected according to the OD value or the EC₅₀ value was calculated (for antibodies with known concentrations).

Experiment [15] has as its target T2, human LAG-3-his. The experiment is described as follows: ELISA on hLAG-3. As to the method:
as §1
This is another data set of the same source.

The target of experiment [16] is T3, bio-LAG3-mFc. The experiment is described as follows: blocking ELISA, LAG-3 on Daudi cells.
Experiment [17] addresses T3, bio-LAG3-mFc. The experiment is described as follows: blocking ELISA, LAG-3 on Daudi cells. This is another data set of the same source.
For experiment [18], the target named is T2, human LAG-3-his. The experiment is described as follows: ELISA on coated human LAG-3-his, anti-human HRP, OD450 (Example 3) [panel a]. The method, then:
as §1

Experiment [19] deals with T3, bio-LAG3-mFc. The experiment is described as follows: blocking ELISA on fixed Daudi cells: antibody titrated against bio-LAG3-mFc binding to Daudi cells (MHC II), streptavidin-HRP, OD450 (Example 4) [panel b].

T1 sequence (Q15116 21-167, form in doubt): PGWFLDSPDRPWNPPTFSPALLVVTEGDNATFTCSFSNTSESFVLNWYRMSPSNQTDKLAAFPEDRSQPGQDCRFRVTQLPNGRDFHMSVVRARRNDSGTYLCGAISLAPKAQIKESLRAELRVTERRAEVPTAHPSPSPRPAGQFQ

B1: bispecific antibody (SBody) LB2371 (bispecific antibody, human IgG4 S228P, kappa)
light: EIVLTQSPATLSLSPGERATLSCRASKGVSTSGYSYLHWYQQKPGQAPRLLIYLASYLESGVPARFSGSGSGTDFTLTISSLEPEDFAVYYCQHSRDLPLTFGGGTKVEIKRTVAAPSVFIFPPSDEQLKSGTASVVCLLNNFYPREAKVQWKVDNALQSGNSQESVTEQDSKDSTYSLSSTLTLSKADYEKHKVYACEVTHQGLSSPVTKSFNRGEC
heavy: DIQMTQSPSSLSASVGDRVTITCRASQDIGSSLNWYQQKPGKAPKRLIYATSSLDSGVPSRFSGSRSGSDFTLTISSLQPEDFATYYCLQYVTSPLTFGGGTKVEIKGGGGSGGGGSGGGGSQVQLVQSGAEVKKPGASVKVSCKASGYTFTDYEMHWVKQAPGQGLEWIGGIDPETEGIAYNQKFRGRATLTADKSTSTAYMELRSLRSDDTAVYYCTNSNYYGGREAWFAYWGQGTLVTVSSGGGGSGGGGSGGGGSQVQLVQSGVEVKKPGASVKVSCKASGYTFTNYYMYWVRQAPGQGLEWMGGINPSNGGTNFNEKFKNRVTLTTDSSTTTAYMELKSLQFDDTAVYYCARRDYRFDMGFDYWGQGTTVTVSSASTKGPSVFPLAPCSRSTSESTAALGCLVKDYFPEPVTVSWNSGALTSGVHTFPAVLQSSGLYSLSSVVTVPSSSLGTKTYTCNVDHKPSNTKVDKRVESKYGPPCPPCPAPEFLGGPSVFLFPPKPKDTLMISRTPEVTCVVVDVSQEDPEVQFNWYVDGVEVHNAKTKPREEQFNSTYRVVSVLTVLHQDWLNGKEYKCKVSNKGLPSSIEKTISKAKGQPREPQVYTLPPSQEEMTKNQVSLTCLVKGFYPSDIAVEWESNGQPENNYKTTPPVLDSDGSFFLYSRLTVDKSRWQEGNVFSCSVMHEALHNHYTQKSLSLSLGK
notes: Ab2317VL-(G4S)3-Ab2317VH-(G4S)3-PemVH-Hc (hIgG4)
By EC50 is commonly meant the concentration giving half of the maximal effect. A low value points to a more potent agent. One may read the IC50 as the concentration that inhibits the measured activity by half. The low end stands for inhibition by little substance, the high end for a need for much substance. As usually defined, the EC50 (read off the curve) is the concentration needed to bring the measured effect to its halfway point. A high value points to a need for much substance. Turning to B1, the EC50 with human PD-1 (hFc/his tag) [1] was found to be 0.128 nM; with human LAG-3-his [2], 0.179 nM; with human LAG-3-his [5] it was 0.251 nM; with human PD-1 (hFc/his tag) [6], 0.293 nM; with human LAG-3-his [7], 0.392 nM; in the experiment with human PD-1 (hFc/his tag) [8] it was 0.324 nM. Also, the concentration giving a half-maximal response (EC50) with human LAG-3-his [9] was 0.298 nM; with human PD-1 (hFc/his tag) [10], 0.227 nM; with Bio-LAG-his, 1.09 nM; with human LAG-3-his [13], 0.298 nM. For the same molecule, the concentration for half-maximal inhibition (IC50) stood at 0.268 nM with human PD-1 (hFc/his tag) [3] and 77.5 nM with bio-LAG3-mFc [4]. In addition, the concentration giving a half-maximal response (EC50 (read off the curve)) was approximately 0.1 nM with human PD-1 (hFc/his tag) [11] and approximately 0.2 nM in the experiment with human LAG-3-his [12].

B2: chimeric antibody mab23c (antibody, human IgG4 S228P, kappa, V domains shown)
VH: QVQLQQSGAELVRPGASVTLSCKASGYTFTDYEMHWVKQTPVHGLEWIGGIDPETEGIAYNQKFRGKAILTADKSSITAYMELRSLTSEDSAVYYCTNSNYYGGREAWFAYWGQGTLVTVSG
VL: DIQMIQSPSSLSASLGERVSLTCRASQDIGSSLNWLQQEPDGTIKRLIYATSSLDSGVPKRFSGSRSGSDYSLTISSLESEDFVDYYCLQYVTSPLTFGAGTKLELKR
notes: hIgG4
For B2, the EC50 came to 0.41 nM with human LAG-3-his [14] and 0.166 nM with human LAG-3-his [15]. The half-inhibitory concentration (IC50) with bio-LAG3-mFc [16] was determined as 2.3 nM; in the experiment with bio-LAG3-mFc [17], 1.55 nM. In addition, the “fold better IC50 than Ref” value with bio-LAG3-mFc [16] was approximately 4 fold. Moreover, the concentration for a half-maximal effect (EC50 (read off the curve)) with human LAG-3-his [18] was approximately 0.4 nM. In addition, the “IC50 (read off the curve)” value in the experiment with bio-LAG3-mFc [19] was approximately 2 nM.
